How the values were obtained:
[1] = Pharmacokinetics of orally dosed insulin emulsion particles in STZ-treated rats (Example 3), plasma insulin; settings: 5 IU/kg s.c. control
From the text: Parameters were estimated using Watson pharmacokinetic software 7.4.2 (Thermo Electron Corporation) using a non-compartmental approach consistent with the various routes of administration. All parameters were generated from Insulin individual animal concentrations in plasma. Parameters were estimated using nominal sampling times to be relative to the start of each dose administration (within an acceptable tolerance limit).
The area under the test item concentration versus time curve (AUC) was calculated using the linear-log linear trapezoidal method. AUC was not calculated for PK profiles with less than 3 consecutive quantifiable concentrations of test article at separate time points. When practical, the terminal elimination phase of each concentration versus time curve was identified using at least the final three observed concentration values. The slope of the terminal elimination phase was determined using linear regression on the unweighted concentration data. […] The parameters described below were reported to 3 significant figures.

blood glucose [2] = experiment: Blood glucose after dosing in STZ type I diabetes model (Example 5); format: in vivo, Sprague-Dawley(SD) rats; settings: 5 IU/kg s.c. control
[3] = in 0.01N HCl; cited from earlier work
blood glucose [4] = experiment: Blood glucose after dosing in STZ type I diabetes model (Example 3); format: in vivo, Sprague-Dawley(SD) rats; settings: 5 IU/kg s.c. control
Experimental: Animals were monitored for blood glucose levels daily over 10 days using a handheld glucometer to verify the disruption of insulin production. […] Prior to the experimental procedure, animals were weighed and randomized into groups based on body weight. All rats were then fasted for five hours prior to dosing.
Control animals were given 5 IU/kg s.c. or 2.5 IU/kg i.v., while experimental animals were dosed orally with 50 IU/kg of microemulsion particles. Food was returned immediately post-dosage and blood was collected at the indicated time points (15, 30, 30, 60, 90, 120, 150, 180, 210, 240, 270, 300, 480, 720, and 1440) over a 24 hr. period. Whole blood was processed to plasma and analyzed for insulin quantity.
Mean insulin and glucose concentrations from the blood of animals were assessed following dosing of 5 IU/kg subcutaneous insulin, 50 IU/kg per os (p.o., i.e., orally) administered TA-3 (BCC with zinc), 50 IU/kg p.o. administered TA-4 (zinc without BCC), and 50 IU/kg p.o. administered TA-7 (BCC without zinc).

insulin
blood insulin levels after s.c. administration [1]: rapid appearance and peak of insulin in the blood
blood glucose concentrations after s.c. injection (blood glucose [2]): drop in blood glucose concentrations beginning just as insulin is detected in the blood
solubility [3]: 20 mg/mL
blood glucose after s.c. administration (blood glucose [4]): corresponding declines in blood glucose

Source: patent US20190247312A1, “PHARMACEUTICAL PREPARATION FOR DELIVERY OF PEPTIDES AND PROTEINS” (priority 2016, published 2019)
